Here are results for 84 variants from the RNAGym collection of RNA variant scans (doi:10.1073/pnas.2313332121).

The chains are these.
B1: TPR t1 (parent)
chain: GACCAAUCUGCCCUCAGAGCUCGAGAACAUCUUCGGAUGCAGAGGAGGCAGGCUUCGGUGGCGCGAUAGCGCCAACGUCCUCAACCUCCAAUGCAUCCCACCACAUGAUGAUGCCUGAAGAGCCUUGGUUUUUUG

The variants in the data set derive from B1. Put plainly: polymerase ribozyme fitness, log enrichment relative to wild type (log ratio); higher = more active; in vitro selection for triplet polymerase activity. An outline of the steps:
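For each subunit of a heterodimeric triplet polymerase ribozyme, a mutant library was built by PCR and transcribed, then taken through a single in vitro selection round in triplicate. Selection involved annealing to a biotinylated primer, the partner subunit and triplets, incubation frozen at −7 °C, gel excision of extended constructs, capture on streptavidin beads and RT-PCR. Genotypes were retained after Illumina sequencing of inputs and outputs only with ≥10 input reads and ≥1 read in each output. Fitness is defined as the logarithm of a genotype's enrichment relative to wild-type enrichment, using inverse-variance-weighted averages across replicates, with the logarithm taken to base 2.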
For C4G C40G C115U, the “polymerase ribozyme fitness (log ratio)” value is -3.42.
The value for A41G G42U A75G A90U G128C U129A was -4.64; that for G39U G45U C72A was -2.22; that for C13U A24G A50U was -1.91.
For A46U C62U A91U A103G U106A C114U U131G the value was -6.47.
For G48U G110A C124G U133A the value was -1.53; for U7A G60U U112A, 1.29; for G44A G71A C73A, -2.85.
Turning to C15G C70G, the “polymerase ribozyme fitness (log ratio)” value was -3.8.
The value for U7G G10U C15A U54A C72G C104A was -2.9; that for C80U C102A was -2.21; that for G45A G110A was -1.34.
Regarding A16U C70U G117U C123A, the “polymerase ribozyme fitness (log ratio)” value is -4.02.
The value for C8A C12A C85U was -0.437; that for G52U C82A A83U G127C was -2.33; that for G19U C56A was -3.03.
The value for C53A C72G C88U C123G was 1.36.
For C49G A83G C88A C102U G120C the value was -5.33; for U9C G120C, 1.46; for U32C G61U C85G, -3.56.
As to G17A C94G, the “polymerase ribozyme fitness (log ratio)” value is -4.81.
The value for A90G U92G G107U C114U G127U was -5.63; that for G45U C62A C89G U112A was -4.99.
With C62U C114G A121C G135A, the “polymerase ribozyme fitness (log ratio)” value is -1.63.
G48A C82U: the “polymerase ribozyme fitness (log ratio)” value was -0.23.
As for C11G A37U A41U A95C U106C C124A, the “polymerase ribozyme fitness (log ratio)” value is -1.05.
For C11U C22A A37G A68G C72A U109A the value was -5.84; for C8U U14A G61U C70U C104U C124A G135C, 0.783; for A46G C56A U133G, -0.786.
For C8A C64U the value was 0.575; for G61C A84U G93C G128A, -5.12.
For G19U A50U the value was -3.48; for G19U A24U A41C A43U U92G C101G G110U, -6.86; for A2C G71A, -2.36.
Take U106A U112G G117C: the “polymerase ribozyme fitness (log ratio)” value was -5.9.
The value for C15G A27G was -4.15; that for C34A C49G C76G U96A C124U U131G U134C was -2.1; that for C86U A119U was -0.189.
For U21G C88G U96A C102U the value was -5.77; for C53A C64U U78C C104A, -0.646; for C89U G110U A121G, -1.62.
On to C73U U96A A108G C114A, for which the “polymerase ribozyme fitness (log ratio)” value was -5.25.
The value for C12A C22A A26C G120U was -4.36; that for C8A G69C was -1.13; that for A5C G107A was -5.67.
The value for C79U A91U was -2.48; that for A18U G48U G52U G69U C79G was -2.76; that for G61A U92A was -2.76.
For C8U A41C A91C C123U the value was 0.0486; for A43U A121C, 0.506; for A24G G71C G120U, -2.78.
On to C11U C82A, for which the “polymerase ribozyme fitness (log ratio)” value is -1.02.
The value for A2G C4G C8G G47U U54C C72A was -2.53.
For U92A C115U the value was -3.78; for C12G G65C U67G A95G A108U A119U C123U, -5.89.
For A2G C13G C123G the value was 1.11.
As for A16G C94A A95U, the “polymerase ribozyme fitness (log ratio)” value was -4.15.
Take C8U C12G G69C: the “polymerase ribozyme fitness (log ratio)” value is -1.06.
Turning to C40A C85G C88U U129G, the “polymerase ribozyme fitness (log ratio)” value is -3.87.
In the case of G36A G63A C94U U132A, the “polymerase ribozyme fitness (log ratio)” value was -1.7.
A121C G122U: the “polymerase ribozyme fitness (log ratio)” value was 0.743.
For G44C G47U C53A C76G C102G G110C, the “polymerase ribozyme fitness (log ratio)” value is -7.23.
Regarding G47C G71C G117U, the “polymerase ribozyme fitness (log ratio)” value is -4.58.
The value for U59C C70U C85A was -2.04; that for C102U G120C was -1.05.
The value for G17C A18C was -4.12; that for A29G C124A was 0.584; that for A24G G58C A118U was -2.06.
On to G48A C64U A111G, for which the “polymerase ribozyme fitness (log ratio)” value was -0.284.
On to C34A C40U C85A, for which the “polymerase ribozyme fitness (log ratio)” value was -5.11.
Take G60U U106G: the “polymerase ribozyme fitness (log ratio)” value was -1.17.
Take G45A C72U A91G U129A: the “polymerase ribozyme fitness (log ratio)” value was -3.43.
The value for A27G C88U U92A C104A U109C A119G U133A was -7.24; that for C62G C115A was -1.81; that for C64A C80G A83U C99U A103C U125A was -7.56.
The value for G47C C72G G113A U126A was -5.16; that for C49G A90C U126C was -3.39.
The value for C3U G39C G44A G77U U78A A119G was -1.19.
U9C C101G C104U U116C: the “polymerase ribozyme fitness (log ratio)” value was -2.48.
For G47A G48A A118G the value was -2.29.
As to G44A C70U, the “polymerase ribozyme fitness (log ratio)” value was -1.67.
For C8A C28U G52U G117C C124A G128A U133A the value was -6.69.
For C89A A100U C115G the value was -5.22; for G36C U81A A84U, -2.7.
